From article PMC12583548 (Nature Communications, 2025)
Positions count from the first letter of the chain named. Numbers in names are those of the source. Where “and” joins values, the source holds several entries; their conditions need not be identical. Equal entries are not always repeated.

How the values were obtained:
[1] = target: T1, neonatal Fc receptor (FcRn), recombinant human ectodomain heterodimer of FcRn α-chain and β2 microglobulin, … (human, UniProt P55899;P61769, biotin on the AviTag (where FcRn was loaded on streptavidin biosensors)); test: BLI; HIS1K biosensors loaded with 10x histidine-tagged spike, FcRn in solution at 1000, 500, 250, 125 and 62.5 nM; pH 7.0 buffer, 25 °C; 1:1 model; settings: both partners purified
T1 construct: also called human FcRn; wild-type FcRn; source: CHO-S, electroporated, purified from the medium (StrepTrap XT); not shown: AviTag, C-terminal, kept

[2] = target: T2, human FcRn mutant D153E (ectodomain heterodimer with β2M) (human, UniProt P55899 24-297; P61769 21-119, D153E); test: BLI; HAstV1 spike loaded, FcRn mutants in solution at 500, 250, 125, 62.5 and 31.25 nM; pH 7.0; 1:1 model; settings: both partners purified
T2 construct: signal peptide in the construct; ectodomain of the FcRn α-chain (FCGRT gene), Met1-Ser297 of UniProt P55899; β-2-microglobulin, Met1-Met119 of UniProt P61769; source: CHO-S, electroporated, purified from the medium (StrepTrap XT)

[3] = target: T3, human FcRn mutant T149N_G151T (ectodomain heterodimer with β2M) (human, UniProt P55899 24-297; P61769 21-119, T149N | G151T); test: as above; settings: both partners purified
T3 construct: signal peptide in the construct; ectodomain of the FcRn α-chain (FCGRT gene), Met1-Ser297 of UniProt P55899; β-2-microglobulin, Met1-Met119 of UniProt P61769; The change brings in the N-linked glycosylation site of mouse FcRn; source: CHO-S, electroporated, purified from the medium (StrepTrap XT)

[4] = target: T1, neonatal Fc receptor (FcRn), …; test: as above; settings: both partners purified
[5] = target: the molecule itself; test: crystal structure; FcRn-HAstV1 spike complex, tags removed, 3.4 Å; hanging drop, 0.1 M NaCl, 0.1 M Bis-Tris:HCl pH 6.1, 1 M ammonium sulfate
[6] = target: T4, neonatal Fc receptor (FcRn), recombinant ectodomain heterodimer of FcRn α-chain and β2 microglobulin (human, UniProt P55899 24-297; P61769 21-119); test: BLI; streptavidin biosensors loaded with Avitag-biotinylated HAstV1 spike K467H (3 ug/mL), dipped into FcRn (2000 nM in the shown replicate); pH 7.0 (0.1 M sodium phosphate, 150 mM NaCl, 0.05% Tween-20); 25 °C; 1:1 binding model; triplicate; settings: both partners purified
T4 construct: signal peptide in the construct; ectodomain of the wild-type FCGRT gene (FcRn α-chain), human, UniProt P55899, Met1-Ser297; followed by a C-terminal thrombin cleavage site before the tags; β-2-microglobulin (β2M), human, UniProt P61769, Met1-Met119; Tags were removed with thrombin only for crystallization; nothing is said of their removal for BLI; also called human FcRn; wild-type FcRn; source: …

[7] = target: T4, neonatal Fc receptor (FcRn), …; test: BLI; streptavidin biosensors loaded with Avitag-biotinylated HAstV1 spike K467H, dipped into FcRn; pH 5.0 (0.1 M sodium acetate, 150 mM NaCl, 0.05% Tween-20); 25 °C; 1:1 binding model; triplicate; settings: both partners purified
[8] = target: T1, neonatal Fc receptor (FcRn), …; test: BLI; streptavidin biosensors loaded with Avitag-biotinylated spike, FcRn in solution (500-62.5 nM for the wild type); pH 5.0 (0.1 M sodium acetate, 150 mM NaCl, 0.05% Tween-20), 25 °C; 1:1 model; settings: both partners purified
[9] = target: T1, neonatal Fc receptor (FcRn), …; test: BLI; streptavidin biosensors loaded with Avitag-biotinylated spike, FcRn in solution (500-62.5 nM for the wild type); pH 7.0 (0.1 M sodium phosphate, 150 mM NaCl, 0.05% Tween-20), 25 °C; 1:1 model; settings: both partners purified
[10] = target: HAstV1 capsid spike domain, Avitag-biotinylated (human astrovirus 1 (HAstV1), UniProt O12792 433-645, biotin on the Avitag); test: BLI; biosensors loaded with biotinylated HAstV1 spike (streptavidin, as in Fig. 1a); human or mouse FcRn in solution, 500, 250, 125, 62.5 nM; pH 7.0 (0.1 M sodium phosphate, 150 mM NaCl, 0.05% Tween-20), 25 °C; 1:1 model; average of three replicates; settings: both partners purified

B1: HAstV1 capsid spike domain, 10x histidine-tagged (domain or fragment)
chain: KVVLTFGAPMSPNANNKQTWVNKPLDAPSGHYNVKIAKDVDHYLTMQGFTSIASVDWYTIDFQPSEAPAPIQGLQVLVNISKKADVYAIKQFVTAQTNNKHQVTSLFLVKVTTGFQVNNYLSYFYRASATGDATTNLLVRGDTYTAGISFTQGGWYLLTNTSIVDGAMPPGWVWNNVELKTNTAYHMDKGLVHLIMPLPESTQMCYEMLTSIP
notes: capsid spike domain of the HAstV1 capsid protein (ORF2), UniProt O12792; also called HAstV1 spike; WT; source: E. coli T7Express, purified (HisPur cobalt resin); not shown: His10, C-terminal, kept
What does the source list for B1?
Kd [1]: 270 nM; koff [1]: 0.014 s⁻¹; kon [1]: 52000 M⁻¹ s⁻¹; Kd [2]: 1600 nM; Kd [3]: 500 nM; Kd [4]: 230 nM

B2: HAstV1 capsid spike domain, tag removed with thrombin (domain or fragment)
chain: B1 chain
notes: capsid spike domain of the HAstV1 capsid protein (ORF2), UniProt O12792; Form used for the SEC complex and the crystal; also called HAstV1 spike; source: E. coli T7Express, purified (HisPur cobalt resin), tag removed with thrombin, SEC; not shown: His10, C-terminal, cleaved
How did the “stoichiometry N” value [5] turn out when B2 was run?
Its value is 2.

B3: HAstV1 capsid spike mutant K467H, Avitag-biotinylated (domain or fragment)
chain: B1 chain with K35H, I80S
modifications: biotin on the Avitag
notes: also called HAstV1_K467H spike; HAstV1 spike K467H; source: T7Express E. coli, purified (HisPur cobalt resin); not shown: Avitag, C-terminal, kept
Which Kd [6] does the source give for B3 here?
Its Kd is 19200 nM and 21500 nM and 26800 nM.

What about the koff [6] of the same binder?
Its koff is 0.239 s⁻¹ and 0.259 s⁻¹ and 0.236 s⁻¹.

What about the kon [6] of the same binder?
Its kon is 12500 M⁻¹ s⁻¹ and 12000 M⁻¹ s⁻¹ and 8800 M⁻¹ s⁻¹.

What about the Kd [7] of the same binder?
The Kd was 447 nM and 869 nM and 1040 nM.

What about the koff [7] of the same binder?
Its koff is 0.033 s⁻¹ and 0.0561 s⁻¹ and 0.0625 s⁻¹.

And the kon [7]?
Its kon is 73900 M⁻¹ s⁻¹ and 64500 M⁻¹ s⁻¹ and 60200 M⁻¹ s⁻¹.

B4: HAstV8 capsid spike domain, 10x histidine-tagged (domain or fragment)
chain: GEQFRVLLTVGPPMAPNTANSQNWVNKTIVPPENQYTVKIGIDLEHYTTMQGFTPVESVSWYTADFQPSDEPSPIPGLYARVNNTKKADVYGVQQFKSSHTNNRHQITSVFLVRVTTSFQVINYTSYFIRGAESGSNVSNLKIRDQTYHTPLQFTQGKWYLLTSTVMHDGPTSSGWVWMNQELTNNIAYRVDPGMMYLITPPPAASQLYFELHTVLPQA
notes: capsid spike domain of the HAstV8 capsid protein (ORF2); also called HAstV8 spike; source: E. coli T7Express, purified (HisPur cobalt resin); not shown: His10, C-terminal, kept
With B4 as the binder, how does the Kd [1] read?
The Kd was 390 nM.

And the koff [1]?
Its koff is 0.03 s⁻¹.

What about the kon [1] of the same binder?
The kon was 76000 M⁻¹ s⁻¹.

B5: HAstV1 capsid spike domain, Avitag-biotinylated (domain or fragment)
chain: B1 chain
modifications: biotin on the Avitag
notes: capsid spike domain of the HAstV1 capsid protein (ORF2), UniProt O12792; it may carry a further tag for the cobalt resin; also called biotinylated HAstV1 spike; Avitag-biotinylated HAstV1 spike; source: E. coli T7Express, purified (HisPur cobalt resin)
With B5 as the binder, how does the Kd [8] read?
The Kd was 102 nM.

What about the Kd [9] of the same binder?
Its Kd is 188 nM.

B6: recombinant mouse FcRn (receptor)
chain 1: SETRPPLMYHLTAVSNPSTGLPSFWATGWLGPQQYLTYNSLRQEADPCGAWMWENQVSWYWEKETTDLKSKEQLFLEALKTLEKILNGTYTLQGLLGCELASDNSSVPTAVFALNGEEFMKFNPRIGNWTGEWPETEIVANLWMKQPDAARKESEFLLNSCPERLLGHLERGRRNLEWKEPPSMRLKARPGNSGSSVLTCAAFSFYPPELKFRFLRNGLASGSGNCSTGPNGDGSFHAWSLLEVKRGDEHHYQCQVEHEGLAQPLTVDLDSSARSS
chain 2: IQKTPQIQVYSRHPPENGKPNILNCYVTQFHPPHIEIQMLKNGKKIPKVEMSDMSFSKDWSFYILAHTEFTPTETDTYACRVKHASMAEPKTVYWDRDM
With B6 as the binder, how does the Kd [10] read?
Its Kd is 58 nM.

And the koff [10]?
The koff was 0.003 s⁻¹.

What about the kon [10] of the same binder?
Its kon is 52000 M⁻¹ s⁻¹.
